# Measurements taken from US9534237B2, “Sesquiterpene synthase gene and protein” (University of Kentucky Research Foundation, priority 2003, dated 2017).
# Several values for one entry are separate records, joined by “and”; a condition that tells them apart may be missing. Equal values may be shown once.
# B1: CVS: citrus valencene synthase from Citrus paradisi, recombinant His-tagged protein expressed in E. coli, SEQ ID NO.: 4 (protein)
# chain: MSSGETFRPTADFHPSLWRNHFLKGASDFKTVDHTATQERHEALKEEVRRMITDAEDKPVQKLRLIDEVQRLGVAYHFEKEIEDAILKLCPIYIDSNRADLHTVSLHFRLLRQQGIKISCDVFEKFKDDEGRFKSSLINDVQGMLSLYEAAYMAVRGEHILDEAIAFTTTHLKSLVAQDHVTPKLAEQINHALYRPLRKTLPRLEARYFMSMINSTSDHLYNKTLLNFAKLDFNILLEPHKEELNELTKWWKDLDFTTKLPYARDRLVELYFWDLGTYFEPQYAFGRKIMTQLNYILSIIDDTYDAYGTLEELSLFTEAVQRWNIEAVDMLPEYMKLIYRTLLDAFNEIEEDMAKQGRSHCVRYAKEENQKVIGAYSVQAKWFSEGYVPTIEEYMPIALTSCAYTFVITNSFLGMGDFATKEVFEWISNNPKVVKAASVICRLMDDMQGHEFEQKRGHVASAIECYTKQHGVSKEEAIKMFEEEVANAWKDINEELMMKPTVVARPLLGTILNLARAIDFIYKEDDGYTHSYLIKDQIASVLGDHVPF
# modifications: His tag; Citrus X paradisi
# Legend:
# [1] = pH dependence assay of reaction product specificity (GC-MS); type: biochemical
# Method: Reactions to determine pH dependence were performed in glass GC-vials with 100 nM of purified enzyme, 20 mM MgCl2, 50 μM FPP (Echelon; Salt Lake City, Utah), and 100 mM buffer at various pH values; total reaction volume 500 μL. The buffers were chosen within one pH unit of the buffer's pKa (pH 5-5.5, acetate; pH 6-7, MES; pH 7.5-9, Tris; pH 9.5-10, ethanolamine; pH 10.5, CAPS). Reactions were allowed to proceed at room temperature for 30 min prior to overlaying with 500 μL of ethylacetate, vortexing for 10 sec, then direct analysis of the reaction products using an HP 6890 gas chromatograph with a 5973 mass spectrometer (Agilent Technologies, Palo Alto, Calif.) with an auto-sampler programmed to remove […] only from the organic phase. GC separations were performed on a 5%-phenyl-methylpolysiloxane column (J&M Scientific, Folsom, Calif.) of 30 m×0.25 mm i.d.×[…] with He as the carrier gas at 2 mL/min and a temperature gradient of 10° C./min from 50° C. (5-min hold) to 180° C. (4-min hold). GC/MS data was analyzed using HP-Chemstation software (version B.01.00) and integration of terpene peaks used for quantification.
# [2] = Terpene synthase reaction product identification by GC-MS (incubation with FPP at pH 7.5); type: biochemical
# Method: Partially purified protein was subsequently incubated with FPP at pH 7.5 using typical sesquiterpene synthase reaction conditions and the pentane extractable products examined by GC-MS (FIG. 7). Two compounds accounting for greater than 95% of the total reaction products dominated the GC profiles and were identified as beta-elemene (30%) and valencene (65%) on the basis of MS matches with authentic standards. The beta-elemene peak most certainly represents a thermal rearrangement product of germacrene A resulting from high temperature injection into the GC.
# Small scale reactions of 50 μL were used for screening purposes and rate determinations. Reactions typically contained 200 mM Tris-HCl, pH 7.5, 40 mM MgCl2, 0.5 μCi [1-3H]FPP, 25-30 μM FPP and 160 nM enzyme. For kinetic determinations, 10 μL aliquots of FPP (giving final concentrations of 0.7-23 μM) were rapidly mixed with 40 μL of enzyme solution at room temperature (23° C.) and allowed to incubate for 1 minute. The reactions were terminated by addition of 150 μL, of a 100 mM KOH, 0.5 M EDTA stop solution. Reactions were extracted with 500 μL of hexane and an aliquot was taken for determination of radiolabeled hydrophobic product via liquid scintillation counting. Hexane extracted samples were not subject to silica chromatography prior to counting because background was minimal and synthase mutants could possibly produce reaction products containing alcohols, which would bind to silica. Kinetic constants were determined from direct fits of the Michaelis-Menton equation to the data using Graphpad Prism 2.01 software.
# Initial synthase reaction products were examined by GC-MS. […] Pooled extracts were dried to 50 μL under a stream of nitrogen gas and 1 μL aliquots of this organic extract were analyzed by GC-MS using an HP-GCDplus (Hewlett-Packard, Palo Alto, Calif.) equipped with a DB-5 ms column, an injector temperature of 250° C. and the mass selective detector set to scan for ions within the range from 45 to 250 m/z. […]
# [3] = partially purified protein incubated with FPP at pH 7.5, pentane extractable products, GC-MS
molecule,measurement,setting,value
B1,pH of transition from valencene to germacrene A as dominant reaction product,[1]; FIG. 10,8.0 pH and ~8.2 pH
same,pH of optimal germacrene A biosynthesis,"[1]; FIG. 10, FPP substrate",8.5 pH
same,pH of optimal valencene biosynthesis,"[1]; FIG. 10, FPP substrate",7.0 pH
same,valencene plus germacrene A (measured as β-elemene) as share of total reaction products,"[1]; at all pHs, ethylacetate extracts, GC-MS",greater than 95%
same,germacrene A as reaction product,[1]; between pH 6.0 to 7.0,virtually no germacrene A was detected
same,beta-elemene plus valencene as share of total reaction products,"[2]; pH 7.5, GC profiles",greater than 95%
same,beta-elemene (thermal rearrangement product of germacrene A) as share of total reaction products,[2]; [3],30%
same,valencene as share of total reaction products,[2]; [3],65%
